Measured values from US20250382602.
Numbering of substitutions follows the chain as printed.

Tests used:
[1] = target: T1, Dda 1993 T55K T55K (Enterobacteria phage T4) (UniProt P32270); conditions: nanopore translocation, PromethION; background mutations not given
T1 sequence: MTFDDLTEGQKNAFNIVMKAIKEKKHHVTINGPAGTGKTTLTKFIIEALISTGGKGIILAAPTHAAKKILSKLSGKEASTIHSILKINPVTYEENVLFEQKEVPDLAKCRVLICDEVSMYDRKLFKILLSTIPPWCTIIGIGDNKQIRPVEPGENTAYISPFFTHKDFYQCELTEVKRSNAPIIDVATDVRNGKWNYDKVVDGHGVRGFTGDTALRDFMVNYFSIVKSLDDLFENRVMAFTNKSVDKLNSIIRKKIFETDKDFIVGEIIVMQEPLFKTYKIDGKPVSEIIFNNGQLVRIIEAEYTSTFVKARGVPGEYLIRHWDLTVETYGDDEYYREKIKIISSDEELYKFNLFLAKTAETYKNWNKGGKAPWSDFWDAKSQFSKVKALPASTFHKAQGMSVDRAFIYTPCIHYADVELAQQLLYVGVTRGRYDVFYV

[2] = target: T2, Dda 1993 Y350E Y350E (Enterobacteria phage T4) (UniProt P32270); conditions: nanopore translocation, PromethION; background mutations not given
T2 sequence: T1 sequence with K55T, Y350E

[3] = target: T3, Dda 1993 C114A C114A (Enterobacteria phage T4) (UniProt P32270); conditions: nanopore translocation; background mutations not given
T3 sequence: T1 sequence with K55T, C114A

[4] = target: T4, Dda 1993 C114P C114P (Enterobacteria phage T4) (UniProt P32270); conditions: nanopore translocation; background mutations not given
T4 sequence: T1 sequence with K55T, C114P

[5] = target: T5, Dda 1993 C114V C114V (Enterobacteria phage T4) (UniProt P32270); conditions: nanopore translocation; background mutations not given
T5 sequence: T1 sequence with K55T, C114V

[6] = target: T6, Dda 1993 C114T C114T (Enterobacteria phage T4) (UniProt P32270); conditions: nanopore translocation; background mutations not given
T6 sequence: T1 sequence with K55T, C114T

“barcoded 3.6 kb DNA analyte ligated to sequencing Y adaptor” was tested, and the activity (bps speed delta vs control) [1] was 8.29, the activity (bps speed delta vs control) [2] was 6.06 and the activity (bps speed delta vs control) [3] was 13.8. The activity (bps speed delta vs control) [4] was 84.5, the activity (bps speed delta vs control) [5] was 26 and the activity (bps speed delta vs control) [6] was -35.7.
